The source of these data is patent publication US20240358731A1, “SUMO PATHWAY AS AN OXYGEN SENSOR RELEVANT TO THE PATHOPHYSIOLOGY OF PULMONARY ARTERY HYPERTENSION AND CARDIAC ARRHYTHMIA” (Northeastern University, priority 2023, published 2024).

In the assay the target is T1, Kir2.4 (Homo sapiens, UniProt Q9UNX9).
T1 sequence (Q9UNX9 1-436): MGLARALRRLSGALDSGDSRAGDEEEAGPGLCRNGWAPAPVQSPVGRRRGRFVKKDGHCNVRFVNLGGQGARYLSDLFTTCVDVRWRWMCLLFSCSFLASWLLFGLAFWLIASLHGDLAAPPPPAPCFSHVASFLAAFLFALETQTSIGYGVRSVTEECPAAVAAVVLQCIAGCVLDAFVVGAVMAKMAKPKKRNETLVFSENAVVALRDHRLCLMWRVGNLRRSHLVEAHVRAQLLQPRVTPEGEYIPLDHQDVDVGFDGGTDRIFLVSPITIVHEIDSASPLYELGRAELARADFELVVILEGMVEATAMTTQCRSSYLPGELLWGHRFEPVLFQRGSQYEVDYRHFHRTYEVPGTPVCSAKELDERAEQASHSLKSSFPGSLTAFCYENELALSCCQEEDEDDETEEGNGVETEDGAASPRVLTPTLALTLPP
In words: Two-electrode voltage-clamp of Kir2.4 currents in Xenopus oocytes. It is filed as cell-based. More on the design: expressed in transfected cells; host or cells: Xenopus oocytes (RNA injection). The settings on record: expression of SENP1. From the text:
FIG. 5A discloses SEQ ID NOS 6-9, respectively, in order of appearance. […] SENP1 increases the current. […] SUMO sensitivity is transferred to Kir2.3 when the site in Kir2.1 is recreated by mutagenesis (Kir2.3-N25D).
Co-expressed SUMO decreases Kir2.4 currents in Xenopus oocytes. Using the SUMOplot algorithm to assess potential SUMOylation sites based on the canonical motif ψ-K-X-E/D, we identified the high probability SUMO site V-K54-K-D (SEQ ID NO: 4) in the N-terminal sequence of Kir2.4. SUMO covalently modifies Kir2.4 at K54 (FIG. 5) and tested the idea using two-electrode voltage-clamp (TEVC), a sensitive assay to study the regulation of Kir channels. Kir2.4 currents, assessed at −80 mV in a high K^+ (96 mM) bath solution, decreased in a dose-dependent manner with co-expression of SUMO1 (FIG. 5). Co-injection of 5 ng of human SUMO1 RNA decreased Kir2.4 currents by ˜50%. In contrast, expression of SENP1 increased Kir2.4 by ˜50%. […] The analogous sequence in Kir2.2 and Kir2.3 is V-K-K-N(SEQ ID NO: 5), which lacks the terminal aspartic acid, reduced the probability of SUMOylation from 0.93 to 0.31. Consistent with this, Kir2.3 currents were insensitive to SUMO1 and SENP1. […] This last result is consistent with a protein-protein interaction between the channel and SUMO1.
(Two-electrode voltage clamp is typically applied to oocytes expressing channels or transporters.)

B1: SENP1: purified deSUMOylating enzyme (SUMO specific protease) introduced via the recording pipette or expressed (protein, UniProt Q9P0U3 1-644, looked up)
Sentrin-specific protease 1: MDDIADRMRMDAGEVTLVNHNSVFKTHLLPQTGFPEDQLSLSDQQILSSRQGHLDRSFTCSTRSAAYNPSYYSDNPSSDSFLGSGDLRTFGQSANGQWRNSTPSSSSSLQKSRNSRSLYLETRKTSSGLSNSFAGKSNHHCHVSAYEKSFPIKPVPSPSWSGSCRRSLLSPKKTQRRHVSTAEETVQEEEREIYRQLLQMVTGKQFTIAKPTTHFPLHLSRCLSSSKNTLKDSLFKNGNSCASQIIGSDTSSSGSASILTNQEQLSHSVYSLSSYTPDVAFGSKDSGTLHHPHHHHSVPHQPDNLAASNTQSEGSDSVILLKVKDSQTPTPSSTFFQAELWIKELTSVYDSRARERLRQIEEQKALALQLQNQRLQEREHSVHDSVELHLRVPLEKEIPVTVVQETQKKGHKLTDSEDEFPEITEEMEKEIKNVFRNGNQDEVLSEAFRLTITRKDIQTLNHLNWLNDEIINFYMNMLMERSKEKGLPSVHAFNTFFFTKLKTAGYQAVKRWTKKVDVFSVDILLVPIHLGVHWCLAVVDFRKKNITYYDSMGGINNEACRILLQYLKQESIDKKRKEFDTNGWQLFSKKSQEIPQQMNGSDCGMFACKYADCITKDRPINFTQQHMPYFRKRMVWEILHRKLL
As for B1, the “increase of Kir2.4 currents” value was about 50%.
